For one substance, uptake of IDS.ApoEII into bEND.3 cells after 24 hours, following blocking with human recombinant ApoE results are on record in US20230390340A1.

The target in this test is ApoE dependent receptors (on bEND.3 mouse endothelial cells) (mouse). The test is described as follows: cell-based or functional assay.

As for “IDS.ApoEII (human iduronate-2-sulfatase with C-terminal invariant flexible linker and ApoE receptor-binding tandem repeat) (from UniProt P22304 26-550) (enzyme)”, the uptake of IDS.ApoEII into bEND.3 cells after 24 hours, following blocking with human recombinant ApoE came out at 30%.
